Measured values published in PMC9352930 (2022).
Values belong to the binder of their own block, whether it stands above or below them.

Key:
[1] = target: T1, C3b (proteolytic fragment of complement component C3) (human, UniProt P01024 749-1663; P01024 749-1663); assay: BLI
[2] = target: iC3b (human); assay: BLI
[3] = target: native complement component C3 (human); assay: SPR
[4] = target: T1, C3b (proteolytic fragment of complement …); assay: SPR
[5] = target: C3 methylamine (human, treated with methylamine); assay: SPR
C3 methylamine (human, treated with methylamine), sequence (chain, as listed by the source, chain 1 of 2): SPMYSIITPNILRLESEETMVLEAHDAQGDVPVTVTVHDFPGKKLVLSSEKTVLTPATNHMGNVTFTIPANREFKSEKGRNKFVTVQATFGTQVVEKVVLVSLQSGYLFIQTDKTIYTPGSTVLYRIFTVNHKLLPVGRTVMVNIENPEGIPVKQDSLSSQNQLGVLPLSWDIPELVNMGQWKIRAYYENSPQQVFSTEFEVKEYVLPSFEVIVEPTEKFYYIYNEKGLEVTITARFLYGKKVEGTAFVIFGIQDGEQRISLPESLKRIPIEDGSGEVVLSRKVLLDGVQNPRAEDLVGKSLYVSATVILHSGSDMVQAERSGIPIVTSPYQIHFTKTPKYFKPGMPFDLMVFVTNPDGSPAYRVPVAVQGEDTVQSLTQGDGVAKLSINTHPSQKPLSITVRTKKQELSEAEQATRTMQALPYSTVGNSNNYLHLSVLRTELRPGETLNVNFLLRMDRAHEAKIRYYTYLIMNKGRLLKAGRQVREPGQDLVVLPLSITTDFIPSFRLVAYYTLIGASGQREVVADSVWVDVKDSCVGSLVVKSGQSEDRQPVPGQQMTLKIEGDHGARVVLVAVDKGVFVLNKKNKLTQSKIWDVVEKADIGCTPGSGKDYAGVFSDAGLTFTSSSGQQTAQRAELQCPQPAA
C3 methylamine (human, treated with methylamine), sequence (chain, as listed by the source, chain 2 of 2): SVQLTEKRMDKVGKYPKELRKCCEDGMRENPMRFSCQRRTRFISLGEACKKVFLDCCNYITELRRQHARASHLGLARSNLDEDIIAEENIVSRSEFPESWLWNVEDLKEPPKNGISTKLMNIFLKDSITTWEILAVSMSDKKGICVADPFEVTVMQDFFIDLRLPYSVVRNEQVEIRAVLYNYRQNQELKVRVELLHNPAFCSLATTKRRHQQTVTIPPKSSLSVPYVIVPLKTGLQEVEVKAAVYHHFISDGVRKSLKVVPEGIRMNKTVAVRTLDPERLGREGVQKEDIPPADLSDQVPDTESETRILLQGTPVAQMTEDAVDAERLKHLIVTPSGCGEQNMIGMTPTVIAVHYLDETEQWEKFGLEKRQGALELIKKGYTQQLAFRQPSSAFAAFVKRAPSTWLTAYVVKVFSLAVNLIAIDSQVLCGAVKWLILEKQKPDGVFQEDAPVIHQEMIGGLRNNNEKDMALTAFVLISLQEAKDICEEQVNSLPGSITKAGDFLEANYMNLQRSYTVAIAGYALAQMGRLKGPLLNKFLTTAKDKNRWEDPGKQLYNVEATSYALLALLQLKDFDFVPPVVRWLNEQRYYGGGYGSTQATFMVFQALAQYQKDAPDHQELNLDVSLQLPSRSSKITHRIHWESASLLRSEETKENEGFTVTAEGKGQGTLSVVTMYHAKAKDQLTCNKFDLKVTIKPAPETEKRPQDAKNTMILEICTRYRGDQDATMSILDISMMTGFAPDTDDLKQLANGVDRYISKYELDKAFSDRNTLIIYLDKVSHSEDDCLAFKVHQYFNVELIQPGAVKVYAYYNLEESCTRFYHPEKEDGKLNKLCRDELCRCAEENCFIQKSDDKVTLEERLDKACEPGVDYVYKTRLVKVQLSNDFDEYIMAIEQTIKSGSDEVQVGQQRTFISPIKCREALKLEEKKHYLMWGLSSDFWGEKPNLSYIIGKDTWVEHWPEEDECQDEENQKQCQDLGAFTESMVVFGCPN

[6] = target: T1, C3b (proteolytic fragment of complement …); assay: BLI; remark: listed apart in the source
[7] = target: iC3b (human); assay: BLI; remark: listed apart in the source

T1 sequence (P01024 23-667, chain 1 of 2): as the sequence (chain, as listed by the source, chain 1 of 2) above
T1 sequence (P01024 749-1663, chain 2 of 2): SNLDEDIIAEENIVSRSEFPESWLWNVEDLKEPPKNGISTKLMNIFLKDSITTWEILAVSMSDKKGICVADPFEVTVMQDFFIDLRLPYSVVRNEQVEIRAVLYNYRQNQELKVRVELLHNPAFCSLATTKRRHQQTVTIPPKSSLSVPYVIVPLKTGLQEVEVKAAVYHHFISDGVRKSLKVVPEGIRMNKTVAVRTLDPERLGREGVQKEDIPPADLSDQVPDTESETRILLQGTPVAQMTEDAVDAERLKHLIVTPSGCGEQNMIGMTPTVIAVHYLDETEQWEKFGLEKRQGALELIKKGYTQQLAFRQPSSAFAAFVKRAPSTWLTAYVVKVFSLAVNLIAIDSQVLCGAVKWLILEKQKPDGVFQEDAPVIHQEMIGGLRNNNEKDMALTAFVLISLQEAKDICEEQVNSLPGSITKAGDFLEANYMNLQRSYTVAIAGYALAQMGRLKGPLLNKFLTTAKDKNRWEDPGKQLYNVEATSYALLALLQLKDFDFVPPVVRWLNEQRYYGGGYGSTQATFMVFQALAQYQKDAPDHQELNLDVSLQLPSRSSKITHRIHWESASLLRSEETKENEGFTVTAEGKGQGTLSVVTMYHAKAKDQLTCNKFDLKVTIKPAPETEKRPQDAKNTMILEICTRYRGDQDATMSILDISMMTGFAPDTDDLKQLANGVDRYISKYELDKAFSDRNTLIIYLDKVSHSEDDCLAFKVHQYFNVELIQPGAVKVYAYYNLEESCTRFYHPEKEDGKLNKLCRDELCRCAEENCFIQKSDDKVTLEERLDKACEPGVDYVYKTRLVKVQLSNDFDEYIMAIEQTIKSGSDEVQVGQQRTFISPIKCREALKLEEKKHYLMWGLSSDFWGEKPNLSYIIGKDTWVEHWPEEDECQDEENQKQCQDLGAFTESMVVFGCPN
iC3b (human), sequence (chain, as listed by the source, chain 1 of 3): as the sequence (chain, as listed by the source, chain 1 of 2) above
iC3b (human), sequence (chain, as listed by the source, chain 2 of 3): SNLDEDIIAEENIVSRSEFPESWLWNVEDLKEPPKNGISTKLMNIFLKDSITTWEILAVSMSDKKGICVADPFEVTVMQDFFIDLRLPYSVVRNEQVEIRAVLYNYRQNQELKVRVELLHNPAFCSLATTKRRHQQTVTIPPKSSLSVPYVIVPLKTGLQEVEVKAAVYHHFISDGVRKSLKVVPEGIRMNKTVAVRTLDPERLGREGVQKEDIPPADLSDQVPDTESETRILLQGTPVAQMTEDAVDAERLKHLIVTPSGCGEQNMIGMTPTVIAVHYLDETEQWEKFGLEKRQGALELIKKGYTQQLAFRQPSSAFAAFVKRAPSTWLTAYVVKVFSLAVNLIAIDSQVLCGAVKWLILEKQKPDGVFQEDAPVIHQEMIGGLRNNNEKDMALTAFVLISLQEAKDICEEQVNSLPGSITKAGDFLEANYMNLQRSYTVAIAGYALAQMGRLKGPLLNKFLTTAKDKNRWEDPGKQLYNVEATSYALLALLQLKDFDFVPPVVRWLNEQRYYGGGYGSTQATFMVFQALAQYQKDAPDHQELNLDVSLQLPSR
iC3b (human), sequence (chain, as listed by the source, chain 3 of 3): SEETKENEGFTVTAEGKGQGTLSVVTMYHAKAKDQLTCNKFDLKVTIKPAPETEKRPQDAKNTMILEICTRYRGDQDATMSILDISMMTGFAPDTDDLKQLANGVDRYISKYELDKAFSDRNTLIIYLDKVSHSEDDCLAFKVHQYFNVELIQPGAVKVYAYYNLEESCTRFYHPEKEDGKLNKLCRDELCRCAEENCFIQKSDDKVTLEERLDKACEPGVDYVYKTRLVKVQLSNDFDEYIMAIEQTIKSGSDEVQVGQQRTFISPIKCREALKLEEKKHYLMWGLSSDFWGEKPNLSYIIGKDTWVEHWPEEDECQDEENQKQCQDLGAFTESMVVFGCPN
native complement component C3 (human), sequence (chain, as listed by the source, chain 1 of 2): as the sequence (chain, as listed by the source, chain 1 of 2) above
native complement component C3 (human), sequence (chain, as listed by the source, chain 2 of 2): as the sequence (chain, as listed by the source, chain 2 of 2) above

Kd [1]: 7.1 nM
Kd [2]: 8.9 nM
B1: EWEnH fusion protein (EWE fused to FH CCP2-4) (other)
chain: EWEQVQLVETGGGLVQAGGSLRLSCAASGSIFSINAMGWFRQAPGKEREFVATINRSGGRTYYADSVKGRFTISRDNGKNMVYLQMHSLKPEDTAIYYCAAGTGWSPQTDNEYNYWGQGTQVTVSSRPCGHPGDTPFGTFTLTGGNVFEYGVKAVYTCNEGYQLLGEINYRECDTDGWTNDIPICEVVKCLPVTAPENGKIVSSAMEPDREYHFGQAVRFVCNSGYKIEGDEEMHCSDDGFWSKEKPKCVEISCKSPDVINGSPISQKIIYKENERFQYKCNMGYEYSERGDAVCTESGWRPLPSCEE

koff [3]: 0.000105 s⁻¹
koff [4]: 8.6e-05 s⁻¹
koff [5]: 7.6e-05 s⁻¹
B2: avi-tagged, biotinylated EWE nanobody (VHH)
VHH: QVQLVETGGGLVQAGGSLRLSCAASGSIFSINAMGWFRQAPGKEREFVATINRSGGRTYYADSVKGRFTISRDNGKNMVYLQMHSLKPEDTAIYYCAAGTGWSPQTDNEYNYWGQGTQVTVSS
modifications: biotin

koff [6]: 0.00037 s⁻¹
koff [7]: 0.00026 s⁻¹
B3: EWE-hC3Nb1 nanobody, bacterially expressed (VHH)
VHH: B2 VHH
